“And” between values parts separate entries of the source, which are not always exact repeats. Equal values may be shown once.

Data set [1] concerns the molecule itself. In words: SDS-PAGE and immunoblot; untreated rat pulmonary artery smooth muscle cells; lysates on SDS-PAGE, immunoblot with Prx6 antibody; no Protein-SHifter. On the technique in general: Immunoblotting shows a protein as a band on a membrane.
Data set [2] deals with the molecule itself. As to the kind of experiment: non-reducing SDS-PAGE with Coomassie staining; purified recombinant CNBD, untreated or treated with H2O2 (1 mM) for 15 min; SDS-PAGE, Coomassie Blue; no Protein-SHifter.
The target in data set [3] is T1, Human peroxiredoxin 6 (Prx6) (human (endogenous in human pulmonary artery smooth muscle cells)), P30041.
T1 chain: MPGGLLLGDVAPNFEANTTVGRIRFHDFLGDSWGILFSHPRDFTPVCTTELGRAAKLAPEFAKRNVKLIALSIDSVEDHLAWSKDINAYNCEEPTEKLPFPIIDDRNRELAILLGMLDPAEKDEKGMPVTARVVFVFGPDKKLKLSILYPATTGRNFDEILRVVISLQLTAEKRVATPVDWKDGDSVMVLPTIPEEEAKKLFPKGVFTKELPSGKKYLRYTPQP
In words: non-reducing SDS-PAGE and immunoblot; untreated (or PDGF-treated) human pulmonary artery smooth muscle cells; TCA-precipitated lysates labelled with Protein-SHifter Plus, SDS-PAGE without BME, immunoblot with Prx6 antibody. The following applies: remark: other sources report otherwise.

The target in data set [4] is T1, Human peroxiredoxin 6 (Prx6) (human …). As to the kind of experiment: non-reducing SDS-PAGE and immunoblot; human pulmonary artery smooth muscle cells, with or without deferoxamine (50 uM, 30 min) and H2O2 (15 min); lysates on SDS-PAGE with or without 5% BME, immunoblot with Prx6 antibody; no Protein-SHifter. The following applies: remark: other sources report otherwise.

Data set [5] has the same target. As to the kind of experiment: SDS-PAGE and immunoblot; lysate proteins from untreated human pulmonary artery smooth muscle cells denatured with SDS and incubated with H2O2 (or BME) in a test tube for 15 min; Protein-SHifter Plus added, SDS-PAGE, immunoblot with Prx6 antibody. As to conditions: remark: other sources report otherwise.

B1: Rat peroxiredoxin 6 (Prx6) (enzyme, UniProt O35244 1-224, looked up)
chain: MPGGLLLGDEAPNFEANTTIGHIRFHDFLGDSWGILFSHPRDFTPVCTTELGRAAKLAPEFAKRNVKLIALSIDSVEDHFAWSKDINAYNGAAPTEKLPFPIIDDKDRDLAILLGMLDPAEKDEKGMPVTARVVFIFGPDKKLKLSILYPATTGRNFDEILRVVDSLQLTASNPVATPVDWKKGESVMVLPTLPEEEAKQLFPKGVFTKELPSGKKYLRYTPQP
notes: Peroxiredoxin 6, rat, one cysteine only (catalytic Cys47); also called rat Prx6; source: endogenous, rat pulmonary artery smooth muscle cells (Cell Applications), in lysate
Regarding B1, the “stoichiometry N” value in data set [1] worked out at 2.

B2: Cyclic nucleotide-binding domain (CNBD) of human HCN4 (hHCN4) (domain or fragment, UniProt Q9Y3Q4 571-708, looked up)
chain: GELSEPLREEIINFNCRKLVASMPLFANADPNFVTSMLTKLRFEVFQPGDYIIREGTIGKKMYFIQHGVVSVLTKGNKETKLADGSYFGEICLLTRGRRTASVRADTYCRLYSLSVDNFNEVLEEYPMMRRAFETVAL
notes: two cysteines; 19 kDa; Subcloned into pETM11; the printed mass of 19 kDa is more than that of residues 571-708 alone, which may mean that the tag was kept; also called hHCN4 CNBD; CNBD domain of hHCN4 channels; source: E. coli BL21 (DE3), purified (Ni2+-NTA, size-exclusion chromatography)
For the molecule B2, the “stoichiometry N” value in data set [2] was 2 and 3.

B3: Human peroxiredoxin 6 (Prx6), P30041 1-224 (enzyme)
chain: T1 chain
On to B3, for which the stoichiometry N in data set [3] is 2 and 3; in data set [4], 2; in data set [5], 2.

By stoichiometry N is commonly meant the number of molecules, sites or subunits per partner or assembly.

These data come from PMC6563020, “Protein Redox State Monitoring Studies of Thiol Reactivity” (Antioxidants, 2019).
